Measured values taken from patent US7807788.
Several values for one entry are separate records, joined by “and”; a condition that tells them apart may be missing. Identical values can stand only once.

What was measured:
[1] = biological target: T1, IL-13 16 mer peptide 2; assay: 16 mer peptide ELISA; peptide 2
T1 sequence (peptide, N-terminal biotin; C-terminal amide): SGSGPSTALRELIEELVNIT

[2] = biological target: T2, IL-13 16 mer peptide 3; assay: 16 mer peptide ELISA; peptide 3
T2 sequence (peptide, N-terminal biotin; C-terminal amide): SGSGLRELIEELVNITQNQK

[3] = biological target: T3, IL-13 16 mer peptide 4; assay: 16 mer peptide ELISA; peptide 4
T3 sequence (peptide, N-terminal biotin; C-terminal amide): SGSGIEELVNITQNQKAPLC

[4] = biological target: T4, IL-13 16 mer peptide 5; assay: 16 mer peptide ELISA; peptide 5
T4 sequence (peptide, N-terminal biotin; C-terminal amide): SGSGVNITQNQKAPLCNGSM

[5] = biological target: T5, IL-13 16 mer peptide 6; assay: 16 mer peptide ELISA; peptide 6
T5 sequence (peptide, N-terminal biotin; C-terminal amide): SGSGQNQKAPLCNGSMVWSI

[6] = biological target: T6, IL-13 16 mer peptide 7; assay: 16 mer peptide ELISA; peptide 7
T6 sequence (peptide, N-terminal biotin; C-terminal amide): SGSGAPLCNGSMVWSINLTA

[7] = biological target: T7, IL-13 16 mer peptide 8; assay: 16 mer peptide ELISA; peptide 8
T7 sequence (peptide, N-terminal biotin; C-terminal amide): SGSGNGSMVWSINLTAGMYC

[8] = biological target: T8, IL-13 16 mer peptide 9; assay: 16 mer peptide ELISA; peptide 9
T8 sequence (peptide, N-terminal biotin; C-terminal amide): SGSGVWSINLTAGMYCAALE

[9] = biological target: T9, IL-13 16 mer peptide 10; assay: 16 mer peptide ELISA; peptide 10
T9 sequence (peptide, N-terminal biotin; C-terminal amide): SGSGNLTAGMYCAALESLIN

[10] = biological target: T10, IL-13 16 mer peptide 11; assay: 16 mer peptide ELISA; peptide 11
T10 sequence (peptide, N-terminal biotin; C-terminal amide): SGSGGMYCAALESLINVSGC

[11] = biological target: T11, IL-13 16 mer peptide 12; assay: 16 mer peptide ELISA; peptide 12
T11 sequence (peptide, N-terminal biotin; C-terminal amide): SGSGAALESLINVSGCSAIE

[12] = biological target: T12, IL-13 16 mer peptide 13; assay: 16 mer peptide ELISA; peptide 13
T12 sequence (peptide, N-terminal biotin; C-terminal amide): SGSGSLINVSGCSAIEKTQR

[13] = biological target: T13, IL-13 16 mer peptide 14; assay: 16 mer peptide ELISA; peptide 14
T13 sequence (peptide, N-terminal biotin; C-terminal amide): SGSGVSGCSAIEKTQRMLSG

[14] = biological target: T14, IL-13 16 mer peptide 15; assay: 16 mer peptide ELISA; peptide 15
T14 sequence (peptide, N-terminal biotin; C-terminal amide): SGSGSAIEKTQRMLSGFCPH

[15] = biological target: T15, IL-13 16 mer peptide 16; assay: 16 mer peptide ELISA; peptide 16
T15 sequence (peptide, N-terminal biotin; C-terminal amide): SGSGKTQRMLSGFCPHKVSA

[16] = biological target: T16, IL-13 16 mer peptide 17; assay: 16 mer peptide ELISA; peptide 17
T16 sequence (peptide, N-terminal biotin; C-terminal amide): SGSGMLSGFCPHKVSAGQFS

[17] = biological target: T17, IL-13 16 mer peptide 18; assay: 16 mer peptide ELISA; peptide 18
T17 sequence (peptide, N-terminal biotin; C-terminal amide): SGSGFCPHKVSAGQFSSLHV

[18] = biological target: T18, IL-13 16 mer peptide 19; assay: 16 mer peptide ELISA; peptide 19
T18 sequence (peptide, N-terminal biotin; C-terminal amide): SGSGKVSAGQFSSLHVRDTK

[19] = biological target: T19, IL-13 16 mer peptide 20; assay: 16 mer peptide ELISA; peptide 20
T19 sequence (peptide, N-terminal biotin; C-terminal amide): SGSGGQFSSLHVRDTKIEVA

[20] = biological target: T20, IL-13 16 mer peptide 21; assay: 16 mer peptide ELISA; peptide 21
T20 sequence (peptide, N-terminal biotin; C-terminal amide): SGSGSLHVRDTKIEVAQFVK

[21] = biological target: T21, IL-13 16 mer peptide 22; assay: 16 mer peptide ELISA; peptide 22
T21 sequence (peptide, N-terminal biotin; C-terminal amide): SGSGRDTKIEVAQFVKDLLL

[22] = biological target: T22, IL-13 16 mer peptide 23; assay: 16 mer peptide ELISA; peptide 23
T22 sequence (peptide, N-terminal biotin; C-terminal amide): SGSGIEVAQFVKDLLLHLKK

[23] = biological target: T23, IL-13 16 mer peptide 27; assay: 16 mer peptide ELISA; peptide 27
T23 sequence (peptide, N-terminal biotin; C-terminal amide): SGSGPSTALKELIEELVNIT

[24] = biological target: T24, IL-13 16 mer peptide 28; assay: 16 mer peptide ELISA; peptide 28
T24 sequence (peptide, N-terminal biotin; C-terminal amide): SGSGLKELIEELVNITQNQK

[25] = biological target: T25, IL-13 16 mer peptide 29; assay: 16 mer peptide ELISA; peptide 29
T25 sequence (peptide, N-terminal biotin; C-terminal amide): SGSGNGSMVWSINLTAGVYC

[26] = biological target: T26, IL-13 16 mer peptide 30; assay: 16 mer peptide ELISA; peptide 30
T26 sequence (peptide, N-terminal biotin; C-terminal amide): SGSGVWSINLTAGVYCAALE

[27] = biological target: T27, IL-13 16 mer peptide 31; assay: 16 mer peptide ELISA; peptide 31
T27 sequence (peptide, N-terminal biotin; C-terminal amide): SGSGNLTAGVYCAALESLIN

[28] = biological target: T28, IL-13 16 mer peptide 32; assay: 16 mer peptide ELISA; peptide 32
T28 sequence (peptide, N-terminal biotin; C-terminal amide): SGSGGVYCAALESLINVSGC

[29] = biological target: T29, IL-13 16 mer peptide 33; assay: 16 mer peptide ELISA; peptide 33
T29 sequence (peptide, N-terminal biotin; C-terminal amide): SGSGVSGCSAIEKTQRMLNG

[30] = biological target: T30, IL-13 16 mer peptide 34; assay: 16 mer peptide ELISA; peptide 34
T30 sequence (peptide, N-terminal biotin; C-terminal amide): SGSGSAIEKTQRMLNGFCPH

[31] = biological target: T31, IL-13 16 mer peptide 35; assay: 16 mer peptide ELISA; peptide 35
T31 sequence (peptide, N-terminal biotin; C-terminal amide): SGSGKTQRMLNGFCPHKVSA

[32] = biological target: T32, IL-13 16 mer peptide 36; assay: 16 mer peptide ELISA; peptide 36
T32 sequence (peptide, N-terminal biotin; C-terminal amide): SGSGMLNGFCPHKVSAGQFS

[33] = biological target: T33, IL-13 16 mer peptide 37; assay: 16 mer peptide ELISA; peptide 37
T33 sequence (peptide, N-terminal biotin; C-terminal amide): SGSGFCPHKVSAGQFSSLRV

[34] = biological target: T34, IL-13 16 mer peptide 38; assay: 16 mer peptide ELISA; peptide 38
T34 sequence (peptide, N-terminal biotin; C-terminal amide): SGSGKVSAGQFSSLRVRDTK

[35] = biological target: T35, IL-13 16 mer peptide 39; assay: 16 mer peptide ELISA; peptide 39
T35 sequence (peptide, N-terminal biotin; C-terminal amide): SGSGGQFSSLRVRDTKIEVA

[36] = biological target: T36, IL-13 16 mer peptide 40; assay: 16 mer peptide ELISA; peptide 40
T36 sequence (peptide, N-terminal biotin; C-terminal amide): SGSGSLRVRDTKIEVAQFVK

[37] = biological target: T37, IL-13 16 mer peptide 41; assay: 16 mer peptide ELISA; peptide 41
T37 sequence (peptide, by the resolver, N-terminal biotin on the SGSG spacer; C-terminal amide): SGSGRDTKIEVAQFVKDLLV

[38] = biological target: T38, IL-13 16 mer peptide 42; assay: 16 mer peptide ELISA; peptide 42
T38 sequence (peptide, N-terminal biotin; C-terminal amide): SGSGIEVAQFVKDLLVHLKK

B1: mouse monoclonal antibody 6A1 (antibody, mouse IgG1, V domains shown)
VH: EIQLQQSVAELVRPGASVRLSCTASGFYIKDTYMHWVIQRPEQGLEWIGTIDPANGNTKYVPKFQGKATITADTSSNTAYLRLSSLTSEDTAIYYCARSIYDDYHYDDYYAMDYWGQGTSVTVSS
VL: DVLMTQTPLSLPVSLGDQASISCRSSQNIVHINGNTYLEWYLQKPGQSPKLLIYKISDRFSGVPDRFSGSGSGTDFTLKISRVEAEDLGVYYCFQGSHVPWTFGGGTKLEIK
For B1, the absorbance at 490 nm [1] was 0.057 A490 and 0.068 A490, the absorbance at 490 nm [2] was 0.067 A490 and 0.07 A490 and the absorbance at 490 nm [3] was 0.079 A490 and 0.105 A490. For the same binder, the absorbance at 490 nm [4] was 0.063 A490 and 0.065 A490, the absorbance at 490 nm [5] was 0.072 A490 and 0.075 A490 and the absorbance at 490 nm [6] was 0.061 A490 and 0.072 A490. For the same binder, the absorbance at 490 nm [7] was 0.084 A490 and 0.071 A490, the absorbance at 490 nm [8] was 0.061 A490 and 0.07 A490 and the absorbance at 490 nm [9] was 0.075 A490 and 0.064 A490. The absorbance at 490 nm [10] was 0.064 A490 and 0.061 A490, the absorbance at 490 nm [11] was 0.075 A490 and 0.062 A490 and the absorbance at 490 nm [12] was 0.066 A490 and 0.063 A490. For the same binder, the absorbance at 490 nm [13] was 0.119 A490 and 0.115 A490, the absorbance at 490 nm [14] was 0.081 A490 and 0.129 A490 and the absorbance at 490 nm [15] was 0.099 A490 and 0.141 A490. For the same binder, the absorbance at 490 nm [16] was 0.064 A490 and 0.06 A490, the absorbance at 490 nm [17] was 0.073 A490 and 0.09 A490 and the absorbance at 490 nm [18] was 0.077 A490 and 0.063 A490. For the same binder, the absorbance at 490 nm [19] was 0.06 A490 and 0.104 A490, the absorbance at 490 nm [20] was 0.061 A490 and 0.078 A490 and the absorbance at 490 nm [21] was 0.09 A490 and 0.076 A490. For the same binder, the absorbance at 490 nm [22] was 0.144 A490 and 0.135 A490, the absorbance at 490 nm [23] was 0.06 A490 and 0.082 A490 and the absorbance at 490 nm [24] was 0.074 A490 and 0.078 A490. For the same binder, the absorbance at 490 nm [25] was 0.098 A490 and 0.071 A490, the absorbance at 490 nm [26] was 0.062 A490 and the absorbance at 490 nm [27] was 0.064 A490 and 0.056 A490. For the same binder, the absorbance at 490 nm [28] was 0.071 A490 and 0.057 A490, the absorbance at 490 nm [29] was 0.088 A490 and 0.084 A490 and the absorbance at 490 nm [30] was 0.082 A490 and 0.067 A490. For the same binder, the absorbance at 490 nm [31] was 0.089 A490 and 0.09 A490, the absorbance at 490 nm [32] was 0.073 A490 and 0.074 A490 and the absorbance at 490 nm [33] was 0.068 A490 and 0.063 A490. The absorbance at 490 nm [34] was 0.067 A490 and 0.056 A490, the absorbance at 490 nm [35] was 0.057 A490 and 0.055 A490 and the absorbance at 490 nm [36] was 0.06 A490. The absorbance at 490 nm [37] was 0.058 A490 and the absorbance at 490 nm [38] was 0.104 A490 and 0.108 A490.
